Data reported in publication PMC6385258.

Assays:
[1] = target: EGF receptor (EGFR) (human (endogenous in MDA-MB-231, MCF-7, MDA-MB-468)) (UniProt P00533); test: flow cytometry on cells; MDA-MB-231 cells in suspension; QD-EGF 0.06-120 nM (EGF:QD = 0.33) or dye-EGF 0.02-40 nM; 4 °C, 4 h with rocking; PBS with 0.5% BSA; nonspecific binding measured with 2 µM unlabeled EGF and subtracted; one-site fit
[2] = target: EGF receptor (EGFR) (human (endogenous in MDA-MB-231, MCF-7, MDA-MB-468)) (UniProt P00533); test: single-molecule counting of quantum dots by calibrated 3D deconvolution microscopy (QDC-3DM); unpatterned MDA-MB-468 cells (high EGFR expression); 1 nM QD-EGF for 5 min on ice; washed and fixed
[3] = target: EGF receptor (EGFR) (human (endogenous in MDA-MB-231, MCF-7, MDA-MB-468)) (UniProt P00533); test: single-molecule counting of quantum dots by calibrated 3D deconvolution microscopy (QDC-3DM); unpatterned MDA-MB-231 cells; QD-EGF at 0.1, 1, 10 or 100 nM for 5 min on ice in serum-free DMEM with 0.8% BSA; washed and fixed
[4] = target: EGF receptor (EGFR) (human (endogenous in MDA-MB-231, MCF-7, MDA-MB-468)) (UniProt P00533); test: single-molecule counting of quantum dots by calibrated 3D deconvolution microscopy (QDC-3DM); MDA-MB-231 cells on fibronectin micropatterns; 1 nM QD744-EGF pulse for 5 min, washed, kept in serum-free medium; counted 10 and 30 min after the start of the pulse; also with gefitinib 0-5.1 µM

Row | Substance | Kd [1] [nM] | mean EGF bound per cell (1 nM QD-EGF) [2] [EGF per cell] | QD-EGF counts per cell (0.1, 1 and 10 nM QD-EGF) [3] [per cell] | mean EGF bound per cell (1 nM QD-EGF) [3] [EGF per cell] | EGF per cell (1 nM QD-EGF) [4] [EGF per cell] | QD-EGF per cell 30 min after the start of a 5 min pulse [4] [per cell]
1 | EGF conjugated to a single tetramethylrhodamine dye (ligand) | 3.2 |  |  |  |  | 
2 | QD-EGF conjugate: epidermal growth factor with a single N-terminal biotin bound to a streptavidin-conjugated quantum dot (ligand) |  | 922 | 0 to 4000 | 80 | 1270 | 800
